Laboratory results reported in paper PMC11934185.

Experiments:
Experiment in all cases: LC-MS of Fabs digested from co-expressed IgG
[1] = molecular target: panitumumab heavy chain, CH1 design 1443, hole CH3 (human)
[2] = molecular target: panitumumab heavy chain, WT CH1, hole CH3 (human)
[3] = molecular target: panitumumab heavy chain, CH1 design 2529, hole CH3 (human)
[4] = molecular target: panitumumab heavy chain, CH1 of designs 1328 and 838 (G166K, T187K), hole CH3 (human)
[5] = molecular target: panitumumab heavy chain, CH1 design 767, hole CH3 (human)
[6] = molecular target: panitumumab heavy chain, CH1 design 367, hole CH3 (human)
[7] = molecular target: panitumumab heavy chain, CH1 of designs 1148 and 454 (L145S), hole CH3 (human)
[8] = molecular target: ustekinumab heavy chain, WT CH1, knob CH3 (human)
[9] = molecular target: panitumumab heavy chain, CH1 design 1039, hole CH3 (human)
[10] = molecular target: ustekinumab heavy chain, CH1 design 1039, knob CH3 (human)

**Q.** ustekinumab light chain, WT Cκ was tested. Which % of observed Fabs (co-expressed: m3) [1] did it give?
**A.** Its % of observed Fabs (co-expressed: m3) is 8%.

**Q.** What about the % of observed Fabs (co-expressed: m3) [2] of the same substance?
**A.** Its % of observed Fabs (co-expressed: m3) is 8%.

**Q.** What about the % of observed Fabs (co-expressed: m11) [3] of the same substance?
**A.** Its % of observed Fabs (co-expressed: m11) is 18%.

**Q.** And the % of observed Fabs (co-expressed: m17) [4]?
**A.** Its % of observed Fabs (co-expressed: m17) is 6%.

**Q.** And the % of observed Fabs (co-expressed: m25) [5]?
**A.** The % of observed Fabs (co-expressed: m25) was 10%.

**Q.** And the % of observed Fabs (co-expressed: m13) [6]?
**A.** The % of observed Fabs (co-expressed: m13) was 8%.

**Q.** What about the % of observed Fabs (co-expressed: m34) [7] of the same substance?
**A.** Its % of observed Fabs (co-expressed: m34) is 10%.

**Q.** What about the % of observed Fabs (co-expressed: m7) [8] of the same substance?
**A.** Its % of observed Fabs (co-expressed: m7) is 50%.

**Q.** And the % of observed Fabs (co-expressed: m17) [8]?
**A.** The % of observed Fabs (co-expressed: m17) was 50%.

**Q.** And the % of observed Fabs (co-expressed: m21) [8]?
**A.** The % of observed Fabs (co-expressed: m21) was 41%.

**Q.** And the % of observed Fabs (co-expressed: m23) [8]?
**A.** Its % of observed Fabs (co-expressed: m23) is 45%.

**Q.** And the % of observed Fabs (co-expressed: m25) [8]?
**A.** Its % of observed Fabs (co-expressed: m25) is 41%.

**Q.** And the % of observed Fabs (co-expressed: m27) [8]?
**A.** The % of observed Fabs (co-expressed: m27) was 40%.

**Q.** What about the % of observed Fabs (co-expressed: m30) [8] of the same substance?
**A.** The % of observed Fabs (co-expressed: m30) was 40%.

**Q.** And the % of observed Fabs (co-expressed: m32) [8]?
**A.** Its % of observed Fabs (co-expressed: m32) is 41%.

**Q.** What about the % of observed Fabs (co-expressed: m36) [8] of the same substance?
**A.** Its % of observed Fabs (co-expressed: m36) is 45%.

**Q.** And the % of observed Fabs (co-expressed: m3) [9]?
**A.** Its % of observed Fabs (co-expressed: m3) is 10%.

**Q.** panitumumab light chain, WT Cκ was tested. Which % of observed Fabs (co-expressed: m3) [2] did it give?
**A.** The % of observed Fabs (co-expressed: m3) was 41%.

**Q.** What about the % of observed Fabs (co-expressed: m38) [2] of the same substance?
**A.** Its % of observed Fabs (co-expressed: m38) is 54%.

**Q.** And the % of observed Fabs (co-expressed: m40) [10]?
**A.** The % of observed Fabs (co-expressed: m40) was 18%.

**Q.** And the % of observed Fabs (co-expressed: m3) [8]?
**A.** The % of observed Fabs (co-expressed: m3) was 21%.
